# Assay results taken from publication PMC4345311.
# Molecular target: HIV-1 protease (PR), wild-type (HIV-1, UniProt P04585 489-587)
# Test: filter binding
Binder,binding result,Kd [nM]
PR10.1-8E-M1 (structured_RNA) RNA: GGGUUACCUAGGUGUAGAUGCUCUUAAGUGUAACUUCUCAUAACAUCCGGAGGCACGUACUUCCGGGGACCUAAGUGACGUCUGAACUGCUUCGAA,no binding,–
PR10.1-8E-M4 (structured_RNA) RNA: GGGUUACCUAGGUGUAGAUGCUACGUAGUGUAACUUCUCAUAACAUCCGGAGGCUUUUACUUCCGGGGACCUAAGUGACGUCUGAACUGCUUCGAA,no binding,–
PR10.1-8E-M6 (structured_RNA) RNA: GGGUUACCUAGGUGUAGAUGCUCUUAUCACAAACUUCUCAUAACAUCCGGAGGCUUUUACUUCCGGGGACCUAAGUGACGUCUGAACUGCUUCGAA,no binding,–
PR10.1-8E-M5 (structured_RNA) RNA: GGGUUACCUAGGUGUAGUACGACUUAAGUGUAACUUCUCAUAACAUCCGGAGGCUUUUACUUCCGGGGACCUAAGUGACGUCUGAACUGCUUCGAA,no binding,–
PR10.1-8E-D3CR (structured_RNA) RNA: GGGUUACCUAGGUGUAGAUGCUCUUAAGUGUAACUUCUCAUAACAUCCGGAGGCUUUUACUUCCGGGG,no binding,–
PR10.1-8E-M2 (structured_RNA) RNA: GGGUUACCUAGGUGUAGAUGCUCUUAAGUGUAACUUCUCAUAACAUCCGGAGGCUUUUAGAAGGCCCGACCUAAGUGACGUCUGAACUGCUUCGAA,no binding,–
PR10.1-8E-M8 (structured_RNA) RNA: GGGUUACCUAGGUGUAGUGUGACUUAUCGUAAACUUCUCAUAACAUCCGGAGGCUUUUACUUCCGGGGACCUAAGUGACGUCUGAACUGCUUCGAA,–,386 ± 63
PR10.1-8E-M10 (structured_RNA) RNA: GGCAGUGGAUCCAGUAGAUGCUCUUAAGUGUAACUUCUCAUAACAUCCGGAGGCUUUUACUUCCGGGGACCUAAGUGACGUCUGAACUGCUUCGAA,no binding,–
PR10.1-8E-M9 (structured_RNA) RNA: GGGUUACCUAGGUGUAGAUGCUCUUAAGUGUAACUUCUCAUAACAUCCGGAGGCUUUUACUUCCGGGGUGGAUCCAUUGGUCUGAACUGCUUCGAA,no binding,–
